Experimental data from patent publication US6699662.

Biological target: T1, SarA (staphylococcal accessory regulator A), strain DB (Staphylococcus aureus) (UniProt Q2G2U9)
T1 sequence: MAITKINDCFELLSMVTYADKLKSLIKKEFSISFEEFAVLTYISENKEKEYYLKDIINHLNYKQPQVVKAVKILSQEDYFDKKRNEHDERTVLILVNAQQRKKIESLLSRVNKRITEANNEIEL
Assay: EMSA
Conditions: same buffer; 1 dimer per DNA; dG dissociation 12.1 kcal/mol

In the case of “AC oligo (45 bp, footprint region of Chien and Cheung)”, the Kd is reported as 1 nM.
